# Experimental data reported in patent CN110903389A (FUZHOU MAIXIN BIOTECHNOLOGY DEV CO LTD, dated 2020).
# B1: 抗GFAP蛋白单克隆抗体(10G1G11H7) (antibody, V domains shown)
# VH: EVQLQQSGAELVKPGASVKLSCTASGFNIKDTYMHWVKQRPEQGLEWIGRIDPANGKTKYDPKFQGKATITADTSSNTAYLQLSSLTSEDTAVYYCARRGIMTTVPFAYWGQGTLVTVSA
# VL: DIVMTQAAPSVPVTPGESVSISCRSSKSLLHSNGNTYLYWFLQRPGQSPQLLIYRMSNLTSGVPDRFSGSGSGTAFTLRISRVEAEDVGVYYCMQHLEYPFTFGGGTKLEIK
# Molecular target: T1, 重组GFAP蛋白 (人GFAP第292位至第432位氨基酸片段 + 组氨酸标签, 大肠杆菌表达) (human, UniProt P14136 292-432)
# T1 construct: also called 重组GFAP蛋白片段; 免疫原; not shown: Histidine tag from vector pET28a
# Assay: Indirect ELISA on coated recombinant GFAP protein. The affinity constant was calculated from the antibody concentration at half of the plateau OD450.
# T1 sequence (P14136 292-432): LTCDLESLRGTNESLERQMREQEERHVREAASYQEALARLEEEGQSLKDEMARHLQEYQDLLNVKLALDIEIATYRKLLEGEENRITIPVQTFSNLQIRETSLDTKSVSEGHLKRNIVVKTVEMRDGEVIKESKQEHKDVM
binder,measurement,value
B1,Ka,6.53e+09 M⁻¹
